Patent US12617856B2, “Protease-cleavable substrates and methods of use thereof” (CytomX Therapeutics, Inc., priority 2022, dated 2026)
Starred links: 1 amine or outer side, 2 acyl side, 3 side chain; linkers in the order of their positions; H or OH if unused. No end group written: not given here. *: point of attachment. K(DNP) = O=C([C@H](CCCCNc1ccc([N+](=O)[O-])cc1[N+](=O)[O-])N[*:1])[*:2]; Mca = COc1ccc2c(CC(=O)*)cc(=O)oc2c1

Experiments:
Format in all cases: biochemical
[1] = molecular target: urokinase-type plasminogen activator (uPA) (Homo sapiens, UniProt P00749); assay: Peptide probe cleavage assay (internally quenched MCA/DNP probes) with uPA; conditions: 20 μM internally quenched peptide probe, 20 nM protease, 37° C.; — = below limit of quantification
[2] = molecular target: MMP9 (Homo sapiens, UniProt P14780); assay: Peptide probe cleavage assay (internally quenched MCA/DNP probes) with MMP9; conditions: 20 μM internally quenched peptide probe, 20 nM protease, 37° C.
[3] = molecular target: MMP14 (Homo sapiens, UniProt P50281); assay: Peptide probe cleavage assay (internally quenched MCA/DNP probes) with MMP14; conditions: 20 μM internally quenched peptide probe, 20 nM protease, 37° C.; — = below limit of quantification
[4] = molecular target: T1, MMP2 (Homo sapiens, UniProt P08253); assay: Peptide probe cleavage assay (internally quenched MCA/DNP probes) with MMP2; conditions: 20 μM internally quenched peptide probe, 20 nM protease, 37° C.
T1 sequence (P08253 110-660): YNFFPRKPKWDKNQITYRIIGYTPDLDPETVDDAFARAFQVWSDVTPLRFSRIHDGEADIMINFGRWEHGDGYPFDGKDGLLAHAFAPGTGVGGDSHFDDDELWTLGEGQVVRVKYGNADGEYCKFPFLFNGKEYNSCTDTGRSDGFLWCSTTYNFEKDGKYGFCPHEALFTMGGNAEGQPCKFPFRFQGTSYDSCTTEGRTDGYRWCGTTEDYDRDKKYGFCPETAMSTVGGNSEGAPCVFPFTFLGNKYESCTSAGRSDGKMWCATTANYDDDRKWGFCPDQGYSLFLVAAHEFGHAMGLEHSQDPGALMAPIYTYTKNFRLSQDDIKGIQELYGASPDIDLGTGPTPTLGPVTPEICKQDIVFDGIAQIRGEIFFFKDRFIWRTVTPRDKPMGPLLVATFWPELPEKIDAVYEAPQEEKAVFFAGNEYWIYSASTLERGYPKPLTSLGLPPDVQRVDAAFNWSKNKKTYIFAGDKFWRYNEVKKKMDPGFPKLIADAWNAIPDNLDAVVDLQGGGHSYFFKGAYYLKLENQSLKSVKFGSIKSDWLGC

[5] = molecular target: T2, membrane type serine protease 1 (MT-SP1) (Homo sapiens, UniProt Q9Y5Y6); assay: Peptide probe cleavage assay (internally quenched MCA/DNP probes) with MT-SP1; conditions: 20 μM internally quenched peptide probe, 20 nM protease, 37° C.
T2 sequence (Q9Y5Y6 1-855): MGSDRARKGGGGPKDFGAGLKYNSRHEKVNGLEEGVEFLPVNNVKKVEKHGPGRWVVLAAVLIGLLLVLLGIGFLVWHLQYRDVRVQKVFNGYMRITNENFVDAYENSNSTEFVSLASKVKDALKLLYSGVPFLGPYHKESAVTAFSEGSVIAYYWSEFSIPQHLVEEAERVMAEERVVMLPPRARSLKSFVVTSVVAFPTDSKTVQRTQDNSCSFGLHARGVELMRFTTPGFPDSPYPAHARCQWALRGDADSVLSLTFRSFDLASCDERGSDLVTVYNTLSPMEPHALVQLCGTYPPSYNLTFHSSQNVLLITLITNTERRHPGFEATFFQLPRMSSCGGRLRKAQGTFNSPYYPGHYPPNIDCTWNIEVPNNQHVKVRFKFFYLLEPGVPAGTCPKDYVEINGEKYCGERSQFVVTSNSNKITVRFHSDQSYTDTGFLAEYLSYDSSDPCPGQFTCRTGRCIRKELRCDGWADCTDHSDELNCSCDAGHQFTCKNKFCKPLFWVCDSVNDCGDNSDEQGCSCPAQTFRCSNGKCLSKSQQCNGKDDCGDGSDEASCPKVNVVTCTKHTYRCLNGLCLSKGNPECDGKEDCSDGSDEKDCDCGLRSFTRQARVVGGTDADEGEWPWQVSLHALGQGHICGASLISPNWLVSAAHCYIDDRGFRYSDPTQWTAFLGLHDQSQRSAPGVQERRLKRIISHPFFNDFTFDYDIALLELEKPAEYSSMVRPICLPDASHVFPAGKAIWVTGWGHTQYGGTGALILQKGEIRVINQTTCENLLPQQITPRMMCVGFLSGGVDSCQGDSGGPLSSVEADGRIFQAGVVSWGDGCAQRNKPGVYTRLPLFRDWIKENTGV

Chain of MMP9 (P14780 94-707): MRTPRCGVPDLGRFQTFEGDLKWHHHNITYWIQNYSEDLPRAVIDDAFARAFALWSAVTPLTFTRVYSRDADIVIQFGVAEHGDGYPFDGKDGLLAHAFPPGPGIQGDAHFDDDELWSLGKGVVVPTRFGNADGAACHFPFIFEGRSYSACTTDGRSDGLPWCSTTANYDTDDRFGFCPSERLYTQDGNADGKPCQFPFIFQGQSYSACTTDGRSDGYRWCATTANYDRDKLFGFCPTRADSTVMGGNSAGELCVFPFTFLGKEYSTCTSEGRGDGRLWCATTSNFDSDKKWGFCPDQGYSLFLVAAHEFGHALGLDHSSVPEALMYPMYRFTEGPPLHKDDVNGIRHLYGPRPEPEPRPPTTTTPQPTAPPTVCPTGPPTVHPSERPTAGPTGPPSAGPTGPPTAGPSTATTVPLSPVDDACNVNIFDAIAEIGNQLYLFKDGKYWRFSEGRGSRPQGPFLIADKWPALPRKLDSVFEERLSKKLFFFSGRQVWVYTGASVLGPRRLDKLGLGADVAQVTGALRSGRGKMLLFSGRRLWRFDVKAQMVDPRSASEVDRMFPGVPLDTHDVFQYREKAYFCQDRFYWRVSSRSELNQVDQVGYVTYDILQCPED

| Substance | Probe Cleavage (pM/s) uPA [1] [pM/s] | Probe Cleavage (pM/s) MMP9 [2] [pM/s] | Probe Cleavage (pM/s) MMP14 [3] [pM/s] | Probe Cleavage (pM/s) MMP2 [4] [pM/s] | Probe Cleavage (pM/s) MT-SP1 [5] [pM/s] |
| --- | --- | --- | --- | --- | --- |
| CM PWGLAGRS: internally quenched MCA/DNP probe SEQ ID NO: 699 with one residue replaced by Ala, CM PWGLAGRS (SEQ ID NO: 690) (not fully specified (N-terminus, C-terminus); also: MCA/DNP internal quench labels, places not given here) | 126 | – | – | – | – |
| CM PWGASGRS: internally quenched MCA/DNP probe SEQ ID NO: 699 with one residue replaced by Ala, CM PWGASGRS (SEQ ID NO: 689) (not fully specified (N-terminus, C-terminus); also: MCA/DNP internal quench labels, places not given here) | – | 456 | 29.7 | 202 | – |
| CM LSGRSPAGL: internally quenched MCA/DNP probe of design SEQ ID NO: 703, X1 Arg, X2 Ala, CM LSGRSPAGL (SEQ ID NO: 694) (also: MCA/DNP internal quench labels, places not given here) | – | – | 190 | – | – |
| CM AWGLSGRS: internally quenched MCA/DNP probe SEQ ID NO: 699 with one residue replaced by Ala, CM AWGLSGRS (SEQ ID NO: 686) (not fully specified (N-terminus, C-terminus); also: MCA/DNP internal quench labels, places not given here) | – | – | 224 | 816 | – |
| (MCA)-Gly-Ser-Trp-Gly-Leu-Ser-Gly-Arg-Ser-Gly-Lys (DNP)-D-Arg (Mca-GSWGLSGRSG-{K(DNP)-dR}; SMILES COc1ccc2c(CC(=O)NCC(=O)N[C@@H](CO)C(=O)N[C@@H](Cc3c[nH]c4ccccc34)C(=O)NCC(=O)N[C@@H](CC(C)C)C(=O)N[C@@H](CO)C(=O)NCC(=O)N[C@@H](CCCNC(=N)N)C(=O)N[C@@H](CO)C(=O)NCC(=O)N[C@@H](CCCCNc3ccc([N+](=O)[O-])cc3[N+](=O)[O-])C(=O)N[C@H](CCCNC(=N)N)C(=O)O)cc(=O)oc2c1) [CM WGLSGRS] | – | 581 | – | 66.4 | – |
| CM RSPWGL: internally quenched MCA/DNP peptide probe of design SEQ ID NO: 698, CM RSPWGL (SEQ ID NO: 90) (also: MCA/DNP internal quench labels, places not given here) | 3210 | 25500 | 9580 | 11700 | 2390 |
| (MCA)-Ser-Pro-Trp-Gly-Leu-Ser-Gly-Arg-Gly-Ser-Lys (DNP)-D-Arg (Mca-SPWGLSGRGS-{K(DNP)-dR}; SMILES COc1ccc2c(CC(=O)N[C@@H](CO)C(=O)N3CCC[C@H]3C(=O)N[C@@H](Cc3c[nH]c4ccccc34)C(=O)NCC(=O)N[C@@H](CC(C)C)C(=O)N[C@@H](CO)C(=O)NCC(=O)N[C@@H](CCCNC(=N)N)C(=O)NCC(=O)N[C@@H](CO)C(=O)N[C@@H](CCCCNc3ccc([N+](=O)[O-])cc3[N+](=O)[O-])C(=O)N[C@H](CCCNC(=N)N)C(=O)O)cc(=O)oc2c1) [CM PWGLSGR] | 48.3 | – | – | – | – |
| (MCA)-Ser-Pro-Trp-Gly-Leu-Ser-Gly-Gly-Gly-Ser-Lys (DNP)-D-Arg (Mca-SPWGLSGGGS-{K(DNP)-dR}; SMILES COc1ccc2c(CC(=O)N[C@@H](CO)C(=O)N3CCC[C@H]3C(=O)N[C@@H](Cc3c[nH]c4ccccc34)C(=O)NCC(=O)N[C@@H](CC(C)C)C(=O)N[C@@H](CO)C(=O)NCC(=O)NCC(=O)NCC(=O)N[C@@H](CO)C(=O)N[C@@H](CCCCNc3ccc([N+](=O)[O-])cc3[N+](=O)[O-])C(=O)N[C@H](CCCNC(=N)N)C(=O)O)cc(=O)oc2c1) [CM PWGLSG] | 12.9 | – | – | – | 5.10 |
| CM PWGLSGRA: internally quenched MCA/DNP probe SEQ ID NO: 699 with one residue replaced by Ala, CM PWGLSGRA (SEQ ID NO: 693) (not fully specified (N-terminus, C-terminus); also: MCA/DNP internal quench labels, places not given here) | 380 | – | – | – | – |
| CM PWGLSGAS: internally quenched MCA/DNP probe SEQ ID NO: 699 with one residue replaced by Ala, CM PWGLSGAS (SEQ ID NO: 692) (not fully specified (N-terminus, C-terminus); also: MCA/DNP internal quench labels, places not given here) | 1.80 | – | – | – | 13.0 |
| CM PWGLRS: internally quenched MCA/DNP peptide probe of design SEQ ID NO: 698, CM PWGLRS (SEQ ID NO: 48) (also: MCA/DNP internal quench labels, places not given here) | – | 3830 | 4380 | 3800 | 1230 |
